Key:
[1] = target: PADI4 (peptidyl-arginine deiminase 4), intact (human) (UniProt Q9UM07); experiment: other fluorescence titration; importin species 0-25 µM added to 3 µM PADI4; 20 mM Tris pH 7.5, 5 mM TCEP, 150 mM NaCl, 5% glycerol; 25 °C; fluorescence at 330 nm
[2] = target: human importin α3 (Impα3), intact (human); experiment: ITC; PADI4 or peptide (100 µM) in the syringe titrated into importin (10 µM) in the cell; 20 mM Tris pH 7.5, 5 mM TCEP, 150 mM NaCl, 5% glycerol; 25 °C; single-site model
[3] = target: ΔImpα3, truncated importin α3 lacking the importin β-binding (IBB) domain (human); experiment: as above
[4] = target: human importin α3 (Impα3), intact (human); experiment: as above; remark: listed apart in the source
[5] = target: NLS1-PADI4 peptide (human); experiment: translational diffusion NMR (DOSY); 100 µM peptide; 100 mM sodium phosphate, pH 7.0; 10 °C; dioxane as reference
[6] = target: human importin α3 (Impα3), intact (human); experiment: BLI; BLItz; His-tagged Impα3 or ΔImpα3 immobilised on His-tag biosensors at 0.3 µM; peptides 1-7 µM; manufacturer's buffer; 25 °C; pseudo-first-order plots; apparent
[7] = target: ΔImpα3, truncated importin α3 lacking the importin β-binding (IBB) domain (human); experiment: as above

Sequence of PADI4 (peptidyl-arginine deiminase 4), intact (Q9UM07 whole entry): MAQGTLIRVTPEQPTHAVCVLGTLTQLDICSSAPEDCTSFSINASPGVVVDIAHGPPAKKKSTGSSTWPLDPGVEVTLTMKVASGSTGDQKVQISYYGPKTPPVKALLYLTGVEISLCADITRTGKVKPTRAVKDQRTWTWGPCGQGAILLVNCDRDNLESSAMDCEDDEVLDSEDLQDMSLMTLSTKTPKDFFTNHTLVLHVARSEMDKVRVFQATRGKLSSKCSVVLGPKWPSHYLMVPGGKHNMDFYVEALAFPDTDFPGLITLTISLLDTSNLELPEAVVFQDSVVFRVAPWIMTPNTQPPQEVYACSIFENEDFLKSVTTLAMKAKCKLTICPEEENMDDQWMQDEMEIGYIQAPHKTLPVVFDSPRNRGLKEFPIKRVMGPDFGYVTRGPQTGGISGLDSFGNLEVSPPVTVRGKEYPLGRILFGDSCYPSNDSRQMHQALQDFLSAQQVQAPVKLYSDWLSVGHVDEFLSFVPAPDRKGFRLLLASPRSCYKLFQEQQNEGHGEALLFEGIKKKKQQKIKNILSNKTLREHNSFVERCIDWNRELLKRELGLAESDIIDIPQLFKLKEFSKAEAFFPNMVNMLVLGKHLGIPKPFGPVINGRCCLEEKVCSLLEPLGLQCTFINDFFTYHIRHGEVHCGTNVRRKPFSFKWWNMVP
Sequence of PADI4 (peptidyl-arginine deiminase 4), intact (human) (Q9UM07 whole entry): as above

Row | Substance | Kd [1] [µM] | Ka [2] [M⁻¹] | Kd [2] [µM] | dH [2] [kcal/mol] | stoichiometry N [2] | Ka [3] [M⁻¹] | Kd [3] [µM] | dH [3] [kcal/mol] | stoichiometry N [3] | Kd [4] [µM] | stoichiometry N [5] | Kd [6] [µM] | koff [6] [s⁻¹] | kon [6] [M⁻¹ s⁻¹] | Kd [7] [µM] | koff [7] [s⁻¹] | kon [7] [M⁻¹ s⁻¹]
1 | human importin α3 (Impα3), intact (natural protein) | 3.9 |  |  |  |  |  |  |  |  |  |  |  |  |  |  |  | 
2 | NLS1-PADI4 peptide |  | 230000 | 4.3 | -21.3 | 1.24 | 650000 | 1.5 | -8.7 | 1.22 | 4.4 | 6 | 18 | 0.0685 | 3700 | 4 | 0.046 | 11000
3 | PADI4 (peptidyl-arginine deiminase 4), intact (from UniProt Q9UM07 1-663) (enzyme) |  | 210000 | 4.8 | -65.5 | 0.97 | 780000 | 1.3 | -38.4 | 0.84 |  |  |  |  |  |  |  | 
4 | ΔImpα3, truncated importin α3 lacking the importin β-binding (IBB) domain (domain or fragment) | 6 |  |  |  |  |  |  |  |  |  |  |  |  |  |  |  | 
